T1: MBD1 MBD (Homo sapiens, UniProt Q9UIS9 1-77)
T1 sequence: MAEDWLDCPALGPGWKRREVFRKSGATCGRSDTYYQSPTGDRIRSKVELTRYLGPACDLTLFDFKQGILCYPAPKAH

B1: AmCGC (dsDNA)
DNA 1: GCCAACGCTGGC
DNA 2: GCCAGCGTTGGC
modifications: 5mC at position 6 of both strands
B2: GmCGC (dsDNA)
DNA 1: GCCAGCGCTGGC
DNA 2: GCCAGCGCTGGC
modifications: 5mC at position 6 of both strands
B3: AmCGT (mCG) (dsDNA)
DNA 1: GCCAACGTTGGC
DNA 2: GCCAACGTTGGC
modifications: 5mC at position 6 of both strands
B4: mCG/TG (dsDNA)
DNA 1: GTCAACGTTACG
DNA 2: CGTAATGTTGAC
modifications: 5mC at position 6 of strand 1
B5: hmCG (dsDNA)
DNA 1: GCCAGCGCTGGC
DNA 2: GCCAGCGCTGGC
modifications: 5hmC at position 6 of both strands

Assays:
[1] = biological target: MBD3 MBD (crystallization) (Homo sapiens, UniProt O95983 1-71); assay: crystal structure
MBD3 MBD (crystallization), sequence (O95983 1-71): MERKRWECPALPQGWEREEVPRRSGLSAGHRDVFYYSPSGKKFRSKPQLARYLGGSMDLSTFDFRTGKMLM

MBD2 MBD R166A = MBD2 MBD R166A (Homo sapiens, UniProt Q9UBB5 143-220, R166A); assay: ITC
MBD2 MBD R166A, sequence (Q9UBB5 143-220 R166A): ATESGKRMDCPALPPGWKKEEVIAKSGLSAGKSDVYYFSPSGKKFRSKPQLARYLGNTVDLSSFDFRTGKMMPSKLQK

MBD3 MBD = MBD3 MBD (Homo sapiens, UniProt O95983 1-71); assay: ITC
MBD3 MBD, sequence (O95983 1-71): as the sequence (O95983 1-71) above

MBD2 MBD R188A = MBD2 MBD R188A (Homo sapiens, UniProt Q9UBB5 143-220, R188A); assay: ITC
MBD2 MBD R188A, sequence (Q9UBB5 143-220 R188A): as the sequence (Q9UBB5 143-220 R166A) above, with A24R, R46A counted along it

MBD4 MBD = MBD4 MBD (Homo sapiens, UniProt O95243 55-152); assay: ITC
MBD4 MBD, sequence (O95243 55-152): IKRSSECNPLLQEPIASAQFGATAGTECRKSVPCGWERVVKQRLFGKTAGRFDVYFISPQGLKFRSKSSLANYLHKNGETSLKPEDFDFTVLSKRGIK

MBD2 MBD = MBD2 MBD (Homo sapiens, UniProt Q9UBB5 143-220); assay: ITC
MBD2 MBD, sequence (Q9UBB5 143-220): as the sequence (Q9UBB5 143-220 R166A) above, with A24R counted along it

MeCP2 MBD = MeCP2 MBD (Homo sapiens, UniProt P51608 80-164); assay: ITC
MeCP2 MBD, sequence (P51608 80-164): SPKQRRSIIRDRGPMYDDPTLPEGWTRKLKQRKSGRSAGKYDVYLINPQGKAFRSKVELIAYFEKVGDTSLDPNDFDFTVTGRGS

MBD1 MBD = biological target: T1, MBD1 MBD; assay: ITC

Row | Binder | binding result [1] | binding result (MBD2 MBD R166A) | Kd (MBD3 MBD) | Kd (MBD2 MBD R188A) | Kd (MBD4 MBD) | Kd (MBD2 MBD) | Kd (MeCP2 MBD) | Kd (MBD1 MBD)
1 | B1 | binds | – | – | – | – | – | – | –
2 | B2 | – | no binding | 5.2 ± 0.5 µM | 5.6 ± 0.5 µM | – | – | – | –
3 | B3 | – | – | 5.4 ± 1.2 µM | – | 0.4 ± 0.1 µM | 0.9 ± 0.2 µM | 1.2 ± 0.2 µM | 1 ± 0.1 µM
4 | B4 | – | – | 6.5 ± 1.2 µM | – | 1.5 ± 0.3 µM | 1.6 ± 0.2 µM | 1.2 ± 0.2 µM | 2.2 ± 0.3 µM
5 | B5 | – | – | – | – | – | 9.7 ± 2.3 µM | 32 ± 4 µM | –
